# Test results: the supplement of paper PMC9170038
# Test system: K4 kissing-loop RNA reporter
# Experiment: apparent KD of K4 kissing-loop reporter; higher = weaker reporter binding
# Settings: Eterna round: R107; input ligand: theophylline 20 uM
# Protocol: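 RNA-MaP round R107: designed RNA switches with theophylline, tryptophan, arginine or FMN aptamers are transcribed on-chip within common flanks. They are titrated with a labelled K4 kissing-loop RNA reporter in RNA-MaP buffer (100 mM Tris pH 7.5, 80 mM KCl, 4 mM MgCl2), without ligand or with the indicated ligand. Median apparent KD per design.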
# 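Note: bound reporter read as fluorescence of individual clusters on recovered sequencing chips by microscopy, with normalized cluster intensities fitted with a binding model.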
row,Sequence,apparent KD of K4 kissing-loop reporter [nM]
1,GCCUGGGCACGAAGGAGCGCCGUGACAGGUUACUGCAUUGGGCAGUGAUGUUGCUCAAUCUGGCAGGUAGGUCGCGUGCCCAGGC,120
2,GGUGUUGUUUGUGCUGUUUUCUUUGUUUCUCGAGGACCGGUACGGCCGCCACUCGAGUGAUGUUUGGGUAGUGAUGUUUGUUAGU [Bdazzled #1 Exc. TA],180
3,AGACUACCACACUGUCAAUAGACAGUGUACUAGGAUAUGCUGAUAAGCAGAAGGAGUGAUGUUCCUGGGUAGUCAAUAAAAUAAU [FmnAX 13 U28+G67],514
4,CGGAUGUAGUGAUGUUAUAUUAGAUGUAGACGAGGACCGGUACGGCCGCCACUCGAAACGGCUACUAGCGCGUUGCGAGGUGUGC [ExTryptoA.CJ],784
5,AGCGAUGUUUUCUCUAGGAGUGAUGUUUUUCGAGGACCGGUACGGCCGCCACUCGGACGACGAGUGUGGUAGUGGGCUGUUGACU [ffmullin],231
6,UAGUCCUAGUGAUCGUUAUCAAGUGGUGGGCGAGGACCGGUACGGCCGCCACUCGACUAUGCAGUGAUGUUGCAAUCCGGACAAU [Exclusion - Tryptophan A (Freestyle 14)],254
7,GCCUAGCAGGGAAGGAGCGGCAUAGGCAUAGAUAAUAUGCAGUUAGUGAUGUUAACACUAUGCCAGGUAGGUCGCCCUGCUAGGC [KL-SSArg B8],120
8,CCAUCGCUAUUCGAUACCAGUCUUUUUUAUUUAUAAAAUCUGCAAAGGAGUGAUGUUCCAGACCCUUGGCAGCGAAUAGUGAUGG [Theophylline B K4 3],570
9,AAAUAAUGCAGUCACCCAGUGAUGUUGGAAGGAGCGUGCGAAAGCACAGGUAGGUCGCCAAUAAUGAUAAAGUUCAGUGGCUUUA [JR_Nu_ExcArginiA_Sub030],464
10,GCAUGCAUGGCAGGAUAUAAUCUGGAGUGAUGUUCCUUUAACCUUUCGAACGGCGAGCCAGGUUGAUUAGAAGGGCCAUGCAUGC,628
11,UAUCAGAUUACUGAUACCAGUCUAAAGACAGUGAUGUUGUCUGAUCGACCACGAUCCAAGGACCCUUGGCAGCAGUGUACUAUUC [#30 K4 Theophylline B Same State],205

# Same assay, conditions: Eterna round: R107; input ligand: tryptophan 2.4 mM
row,Sequence,apparent KD of K4 kissing-loop reporter [nM]
1,UUUCGUUGAAGUGAUACCAGACUUGAAAGUGAUGUUUUCCAAUAAUUUAAAUUAUUAGCUGUCCCUUGGCAGCACAGUUUAUUUA [JR_ExcTheophyB_Sub007],208
2,UGUAUGUGAUUUGAUACCAGACCAGCUGAUGGAUCACGAGUGAUGUUCGUGUUGGUUUGGGUCCCUUGGCAGCAAAUCGCAUACU [KL-SSTheoB14],285
3,UGUGUUGUUUUGAUGUUUGGUGUUGCUUGGCAGGAUAUCGUAGAGGCGAGAAGGGCUUGUGAGCGGUAUGAGUGAUGUUUGUAGG [zwwrmullin],336
4,AAAGCAGUAUACUGCAAGACCUAUACUGAUACCAGAGUCAAUUGACUCCCUUGGCAGCGGAUCGAGUGAUGUUCGUAAGGUCAAA [AK4.1 SS Theophylline A],617
5,AGACCACAAAGUGGUCAGUGUUCGCUGCAGCGAGGACCGGUACGGCCGCCACUCGCGAGUGAUGUUCGCGAGAGCAGCGAACACA [Omei KL Tryp A Exc A v6],116
6,CAUAUCAGAUAAGGAUAUAUGGCUCCUCGAGUCCAGUGAUGUUGGGCAACGUUUCAGUGGUGGAUUAUAGAAGGUAUUCACAGAC [theeternabot_sameState_KL_FMN_B_9],258
7,UAGCGUCUGCGAGGAUAUCGGAUUAGAGUGAUGUUCUAAAGACGCCCAGUGAUGUUGGAUGCGAUACGAGAAGGCGCUGGGCGCG [Same State FMN B GF7],297
8,GGUAGCAUGGCGGCCGCCACUGUCUAGUGAUGUUAGACCCGACGUGGAUUCAAGACAGUCGGAAACAGGACCGGGCCAUGCUACC,179
9,AAUUUAUUAACUGAUACCAGACUUAAUAAAUUUUAAAUCACUAGUGAUGUUAGUGAAUAUGUCCCUUGGCAGCAGUAUUUAUUAA [JR_SSTheophyB_Sub023],115
10,GGAUAGGACAGAGGAUAUGGUAGUGAUGUUACCACGAGACAAAGUCUCGAAAAGCUACAAAGUAGCCCAGAAGGCUGUCCUAUCG [FmnBX 25 #SwitchBubble #StaticStem #Palindromic],127
11,UUUCGGCCCAGUGAUGUUGGGUGGAGGCGGCGAGGACCGGUACGGCCGCCACUCGGCGCACUGGCGGAGUGAUGUUUCGUGUAUA [Same State Tryptophan A GF 14],834
12,UGACUGGAUGGAAGGAGCGCUAAACUCCUAGUGAUGUUAGGGACACGAGACAAAGUCUCGAGGCAGGUAGGUCGCCAUCUAGUCU [FiskerMod 7 - Jieux - Same State - Arginine B],212
13,AAUAAGGAGUGAUGUUCCAAGUGAUGUUAACGAGGACCGGUACGGCCGCCACUCGAUACGGCCGGAAAGUAAGAUAAACUAAAAU [Same State - Tryptophan A (Freestyle 2)],47.2
14,UGCGCUGUGUCCUGAAAUGUCCUCCGGGAUACCAGAGUCUUUUUAUUCCCUUGGCAGCUUGAGUGAUGUUUGAUGCCGUUCUUGU [yvvymullin],515
15,UGGGAUGGUUCGGCCGCCACUAUGGUGCAGUGAUGUUGCAUCGUAGUAAAUCAUUCCAUUUACCGUAGGACCGGGAACCUUACGC [Mavelege],86.2
16,GGGUGGUAGGCGGCCGCCACUCUGAGCACCCACUGAGUGAUGUUCGUGGCGUAAGCCUGUUCAUAGAGGACCGGGUUUGUUGUUC [Exclusion Tryptophan B GF 16],376
17,CGCAAGCAGCUAGUGAUGUUGGCCGCCUUGCGAGGACCGGUACGGCCGCCACUCGGAGGCGGCUACUGAUAAACCGUCUAACGGA [KL-XTryp-A10],224
18,GGGAGUGAUGUUCCCACGUUGUCGGUCCUCCGAGGACCGGUACGGCCGCCACUCGCGACCCAGUGAUGUUGGGACUCACCGUACC [Exclusion Tryptophan A Gf 12],218
19,UACGUAGAGCGAGGAUAUCCUUCCCACGUCGAAGUACCGUGCUUGAUGGAGUGAUGUUCGAUCAGAGGAGAAGGUGCGAAACGUC [Flavin Switch Lower Fold Energy],524
20,AAUUCAGCUAGUGAUGUUAGCGUAGAGUGCAAGGAUAUCCCUGUCAGGAGAAGGUGCGUAGAACGUUUGCCAUCAGAUUGUCCCA [theeternabot_exclusion_KL_FMN_A_48],109
21,GAUAUAGUGAUGUUAUAUACUGAUAGACAACGAGGACCGGUACGGCCGCCACUCGAGAGGGUGAAAUUAAUGAUAAAAUAAUAAU [ExyTryA#2],270
22,GCAGUGAUGUUGCUGAUGUGCAGUGGUAGUCGAGGACCGGUACGGCCGCCACUCGGUGAGAAUUUGCUAAUACAUCGAUAAGUGA [XVII],904

row,Sequence,apparent KD of K4 kissing-loop reporter [nM]
1,CUCAGAAAGACUGUCCAAGUGAUGUUUGGACGAGGACCGGUACGGCCGCCACUCGCUGUUGCGAAUGUUAAGGUACGAGUCGCGG [theeternabot_exclusion_KL_Trp_A_30],91.7
2,CUGACCAACAGCGAUACCAGCGUGGAGUGAUGUUCCCUGGUCCGGGCUGAUGUUCCCUUGCGCCCUUGGCAGCGCAGAAGCAGGA [Exclusion Theophylline B GF 12],281
3,UUAGAGAUCUCAGGAUAUCAGUGAUGUUGGUGUAAAGAUCUGAGAUAGAAUUCUAUCUCAGAUCAAUGAGAAGGGAGAUCUCAUU [AK3.2 Exc FMN B],174
4,AUGGUGGAUCAGUGAUGUUGGUGGAGUACGUAGGAUAUGAGUGAUGUUAGAAGGAUGGGAGUGAUGUUCCAGGUGGUUGUGUUGU [KL-SSFMN-A1],492
5,GUUUCUUGGAAACAAGGACCGCUAACCGAAGGAGCGAGUGAAAACUCAGGUAGGUCGCGGUAGCGGAGUGAUGUUCCGCGUUUAC [Excluson Arginine A GF 15],99.8
6,UCGGACCCUGGAGGAUAUGAGUCGAGUGAUGUUUGGCGGUCCAUGCCGGUGCGGCGUUAUGCCCUUUUAGAAGGCCAGGGUCCGA [#2 Exclusion - FMN B Attempt #13 (HarryS)],289
7,UUCAGGUGUUCGGCCGCCACUCCAGUGAUGUUGGAGUGGCUUCACAAGGACCAGGACAAUGUAAGGAGGACCGGGAAUAUCGCAG [Leerat],125
8,ACUGGAAUUGUACUCCAGUGAUGUUGGAGGCAGGAUAUCCAGUAAAGGAGAAGGGCCAUCGCGCUAUUUGGCCGCAGGCGGCCAG [Acela],150
9,UUUGUAUCGGGAAGGAGCGUGAAUGAUAAUGGAUAUAGUGAUGUUAUAUAUAAGAACGAAUCGCAGGUAGGUCGCCCGGAUGACU [SSArgB.Q],252
10,UUUGGUUUCUCGGCCGCCACUCGUUGGUUAUGGGCUUCAGGGAUAUAGUGAUGUUAUGUAUAGAAGAGGACCGGGAGAAGGUUUG [ExTryptoB.Dt],301
11,GCCUGGGCACGAAGGAGCGCCGUGACAGGUUACUGCAUUGGGCAGUGAUGUUGCUCAAUCUGGCAGGUAGGUCGCGUGCCCAGGC,113
12,GGUGUUGUUUGUGCUGUUUUCUUUGUUUCUCGAGGACCGGUACGGCCGCCACUCGAGUGAUGUUUGGGUAGUGAUGUUUGUUAGU [Bdazzled #1 Exc. TA],239
13,AGACUACCACACUGUCAAUAGACAGUGUACUAGGAUAUGCUGAUAAGCAGAAGGAGUGAUGUUCCUGGGUAGUCAAUAAAAUAAU [FmnAX 13 U28+G67],404
14,CGGAUGUAGUGAUGUUAUAUUAGAUGUAGACGAGGACCGGUACGGCCGCCACUCGAAACGGCUACUAGCGCGUUGCGAGGUGUGC [ExTryptoA.CJ],480
15,AGCGAUGUUUUCUCUAGGAGUGAUGUUUUUCGAGGACCGGUACGGCCGCCACUCGGACGACGAGUGUGGUAGUGGGCUGUUGACU [ffmullin],493
16,UAGUCCUAGUGAUCGUUAUCAAGUGGUGGGCGAGGACCGGUACGGCCGCCACUCGACUAUGCAGUGAUGUUGCAAUCCGGACAAU [Exclusion - Tryptophan A (Freestyle 14)],213
17,GCCUAGCAGGGAAGGAGCGGCAUAGGCAUAGAUAAUAUGCAGUUAGUGAUGUUAACACUAUGCCAGGUAGGUCGCCCUGCUAGGC [KL-SSArg B8],125
18,CCAUCGCUAUUCGAUACCAGUCUUUUUUAUUUAUAAAAUCUGCAAAGGAGUGAUGUUCCAGACCCUUGGCAGCGAAUAGUGAUGG [Theophylline B K4 3],459
19,AAAUAAUGCAGUCACCCAGUGAUGUUGGAAGGAGCGUGCGAAAGCACAGGUAGGUCGCCAAUAAUGAUAAAGUUCAGUGGCUUUA [JR_Nu_ExcArginiA_Sub030],659
20,GCAUGCAUGGCAGGAUAUAAUCUGGAGUGAUGUUCCUUUAACCUUUCGAACGGCGAGCCAGGUUGAUUAGAAGGGCCAUGCAUGC,530
21,UAUCAGAUUACUGAUACCAGUCUAAAGACAGUGAUGUUGUCUGAUCGACCACGAUCCAAGGACCCUUGGCAGCAGUGUACUAUUC [#30 K4 Theophylline B Same State],191
